Results reported in article PMC5674874 (The Journal of Cell Biology, 2017).
Changes are numbered by the printed parent chain.

Assays:
Stu2-2D-Flag = target: T1, Stu2-2D-Flag (S. cerevisiae, UniProt P46675 1-888, S813D | S815D); assay: SEC
T1 sequence (looked up): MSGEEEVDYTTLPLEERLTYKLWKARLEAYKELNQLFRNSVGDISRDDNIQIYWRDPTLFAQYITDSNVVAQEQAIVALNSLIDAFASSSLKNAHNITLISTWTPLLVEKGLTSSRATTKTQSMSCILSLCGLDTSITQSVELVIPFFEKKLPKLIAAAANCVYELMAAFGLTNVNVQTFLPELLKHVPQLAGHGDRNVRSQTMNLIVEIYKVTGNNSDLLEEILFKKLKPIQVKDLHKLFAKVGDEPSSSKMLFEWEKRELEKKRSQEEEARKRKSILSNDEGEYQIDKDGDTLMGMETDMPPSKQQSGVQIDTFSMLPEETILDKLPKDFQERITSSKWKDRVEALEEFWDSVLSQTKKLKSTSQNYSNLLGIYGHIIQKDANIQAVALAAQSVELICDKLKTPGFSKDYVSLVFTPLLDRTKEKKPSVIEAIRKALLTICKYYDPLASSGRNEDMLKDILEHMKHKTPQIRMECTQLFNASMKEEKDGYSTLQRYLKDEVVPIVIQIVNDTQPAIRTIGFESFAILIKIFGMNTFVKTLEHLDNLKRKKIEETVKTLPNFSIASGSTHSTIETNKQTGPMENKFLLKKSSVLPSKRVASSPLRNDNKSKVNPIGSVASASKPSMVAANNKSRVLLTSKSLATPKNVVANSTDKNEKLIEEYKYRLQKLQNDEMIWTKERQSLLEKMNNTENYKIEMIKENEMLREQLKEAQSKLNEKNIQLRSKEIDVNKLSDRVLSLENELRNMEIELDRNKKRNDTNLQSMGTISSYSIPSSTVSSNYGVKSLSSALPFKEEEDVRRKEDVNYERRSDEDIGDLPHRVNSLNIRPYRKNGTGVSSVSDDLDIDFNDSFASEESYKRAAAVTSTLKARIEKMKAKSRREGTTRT

Stu2-WT-Flag = target: T2, Stu2-WT-Flag (S. cerevisiae, UniProt P46675 1-888); assay: SEC
T2 sequence (looked up): T1 sequence (looked up) with D813S, D815S

binding result (Stu2-2D-Flag): binds | binding result (Stu2-WT-Flag): binds
B1: Bik1 (recombinant, from StrepII-TEV-Bik1) (natural protein, S. cerevisiae, UniProt P11709 1-440, looked up)
chain: MDRYQRKIGCFIQIPNLGRGQLKYVGPVDTKAGMFAGVDLLANIGKNDGSFMGKKYFQTEYPQSGLFIQLQKVASLIEKASISQTSRRTTMEPLSIPKNRSIVRLTNQFSPMDDPKSPTPMRSFRITSRHSGNQQSMDQEASDHHQQQEFGYDNREDRMEVDSILSSDRKANHNTTSDWKPDNGHMNDLNSSEVTIELREAQLTIEKLQRKQLHYKRLLDDQRMVLEEVQPTFDRYEATIQEREKEIDHLKQQLELERRQQAKQKQFFDAENEQLLAVVSQLHEEIKENEERNLSHNQPTGANEDVELLKKQLEQLRNIEDQFELHKTKWAKEREQLKMHNDSLSKEYQNLSKELFLTKPQDSSSEEVASLTKKLEEANEKIKQLEQAQAQTAVESLPIFDPPAPVDTTAGRQQWCEHCDTMGHNTAECPHHNPDNQQFF
